According to patent US20240409647A1 (SINOMAB BIOSCIENCE, published 2024):

Columns and labels:
[1] = target: T1, human IL-17 receptor subunit A (human, UniProt Q96F46 33-320); test: ELISA, coated receptor; SM17 at 0.016 µg/mL; well 1
T1 construct: also called IL17RA; hIL17RA

[2] = target: T2, human IL-17 receptor subunit C (human, UniProt Q8NAC3-2 21-467, limits assumed); test: as above
T2 construct: also called IL17RC; hIL17RC
T2 sequence (looked up): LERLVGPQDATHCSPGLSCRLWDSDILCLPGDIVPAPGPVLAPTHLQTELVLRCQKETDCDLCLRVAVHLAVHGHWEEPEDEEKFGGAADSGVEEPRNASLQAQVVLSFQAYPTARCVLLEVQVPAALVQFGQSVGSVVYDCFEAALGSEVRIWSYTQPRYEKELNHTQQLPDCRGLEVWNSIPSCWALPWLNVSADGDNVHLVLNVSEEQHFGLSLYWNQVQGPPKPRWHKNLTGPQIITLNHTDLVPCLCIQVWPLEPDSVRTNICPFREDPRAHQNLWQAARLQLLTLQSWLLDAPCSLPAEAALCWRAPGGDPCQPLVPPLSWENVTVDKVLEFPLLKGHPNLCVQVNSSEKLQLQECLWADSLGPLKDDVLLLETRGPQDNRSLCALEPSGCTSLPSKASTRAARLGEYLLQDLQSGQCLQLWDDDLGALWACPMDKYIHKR

[3] = target: T3, human IL-17 receptor subunit E (human, UniProt Q8NFR9 24-454, limits assumed); test: as above
T3 construct: also called hIL17RE
T3 sequence (looked up): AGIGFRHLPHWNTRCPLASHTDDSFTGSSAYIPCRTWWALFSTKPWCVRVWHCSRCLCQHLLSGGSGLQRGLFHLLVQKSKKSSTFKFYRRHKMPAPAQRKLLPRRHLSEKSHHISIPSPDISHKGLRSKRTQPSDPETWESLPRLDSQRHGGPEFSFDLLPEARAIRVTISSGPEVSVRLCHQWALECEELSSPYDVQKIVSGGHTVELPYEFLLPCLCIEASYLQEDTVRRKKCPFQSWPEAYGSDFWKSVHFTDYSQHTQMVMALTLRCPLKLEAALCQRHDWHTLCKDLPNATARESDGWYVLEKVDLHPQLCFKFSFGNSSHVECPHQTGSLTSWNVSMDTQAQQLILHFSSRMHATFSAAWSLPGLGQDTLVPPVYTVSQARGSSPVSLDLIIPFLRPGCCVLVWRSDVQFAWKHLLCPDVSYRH

[4] = target: T4, human IL-17 receptor subunit D (human, UniProt Q8NFM7 28-299, limits assumed); test: as above
T4 construct: also called IL17RD; hIL 17RD
T4 sequence (looked up): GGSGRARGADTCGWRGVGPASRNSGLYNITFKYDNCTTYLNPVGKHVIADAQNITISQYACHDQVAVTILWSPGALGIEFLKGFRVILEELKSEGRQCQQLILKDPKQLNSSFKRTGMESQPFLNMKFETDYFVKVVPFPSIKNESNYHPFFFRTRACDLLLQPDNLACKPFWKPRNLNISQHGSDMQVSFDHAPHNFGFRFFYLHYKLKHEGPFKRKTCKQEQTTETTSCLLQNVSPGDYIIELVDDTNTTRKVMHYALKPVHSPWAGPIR

[5] = target: T1, human IL-17 receptor subunit A; test: ELISA, coated receptor; SM17 at 0.08 µg/mL; well 1
[6] = target: T2, human IL-17 receptor subunit C; test: ELISA, coated receptor; SM17 at 0.08 µg/mL; well 1
[7] = target: T5, human IL-17RB protein (recombinant, R&D systems) (human); test: ELISA, coated receptor; SM17 at 0.08 µg/mL; well 1
T5 construct: Bought protein; also called hIL17RB
T5 sequence (Q9NRM6 whole entry, looked up): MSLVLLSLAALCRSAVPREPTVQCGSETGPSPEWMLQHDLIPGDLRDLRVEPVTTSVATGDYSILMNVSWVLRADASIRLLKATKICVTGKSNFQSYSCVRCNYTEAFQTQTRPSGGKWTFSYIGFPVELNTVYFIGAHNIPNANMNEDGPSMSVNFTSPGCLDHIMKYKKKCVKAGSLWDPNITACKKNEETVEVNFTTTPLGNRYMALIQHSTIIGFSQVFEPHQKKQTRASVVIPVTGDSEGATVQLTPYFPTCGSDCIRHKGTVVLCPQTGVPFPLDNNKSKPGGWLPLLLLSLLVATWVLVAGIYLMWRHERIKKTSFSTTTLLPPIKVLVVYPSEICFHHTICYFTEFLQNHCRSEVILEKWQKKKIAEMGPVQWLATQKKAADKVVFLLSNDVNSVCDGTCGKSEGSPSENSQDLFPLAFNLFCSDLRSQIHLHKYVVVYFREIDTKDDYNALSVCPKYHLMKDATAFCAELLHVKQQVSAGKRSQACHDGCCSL

[8] = target: T3, human IL-17 receptor subunit E; test: ELISA, coated receptor; SM17 at 0.08 µg/mL; well 1
[9] = target: T4, human IL-17 receptor subunit D; test: ELISA, coated receptor; SM17 at 0.08 µg/mL; well 1
[10] = target: T1, human IL-17 receptor subunit A; test: ELISA, coated receptor; SM17 at 0.4 µg/mL; well 2
[11] = target: T2, human IL-17 receptor subunit C; test: ELISA, coated receptor; SM17 at 0.4 µg/mL; well 2
[12] = target: T5, human IL-17RB protein (recombinant, R&D …); test: ELISA, coated receptor; SM17 at 0.4 µg/mL; well 2
[13] = target: T3, human IL-17 receptor subunit E; test: ELISA, coated receptor; SM17 at 0.4 µg/mL; well 2
[14] = target: T4, human IL-17 receptor subunit D; test: ELISA, coated receptor; SM17 at 0.4 µg/mL; well 2

B1: SM17 (antibody, human IgG4 S228P, kappa, V domains shown)
VH: QVQLVQSGAEVKKPGASVKVSCKASGYTFISYWMNWVRQAPGQGLEWMGRIDPYDSEIQYNQKFKDRVTMTRDTSISTAYMELSRLRSDDTAVYYCARSGGFDWFAYWGQGTLVTVSS
VL: DIQMTQSPSSLSASVGDRVTITCRASENINSNLAWYQQKPGKAPKLLLYDVTNLADGVPSRFSGSGSGTDYTLTISSLQPEDFATYYCQHFWGPPYTFGGGTKVEIKR
notes: other paragraphs and claim 15 call the same entries VH and VL; also called humanized anti-IL17RB monoclonal antibody
- OD 450 nm Absorption [1]: 0.01 OD450
- OD 450 nm Absorption [2]: 0.09 OD450
- OD 450 nm Absorption [3]: 0 OD450
- OD 450 nm Absorption [4]: 0.07 OD450
- OD 450 nm Absorption [5]: 0 OD450
- OD 450 nm Absorption [6]: 0.02 OD450
- OD 450 nm Absorption [7]: 0.79 OD450
- OD 450 nm Absorption [8]: -0.04 OD450
- OD 450 nm Absorption [9]: 0.03 OD450
- OD 450 nm Absorption [10]: 0.22 OD450
- OD 450 nm Absorption [11]: 0.18 OD450
- OD 450 nm Absorption [12]: 1.31 OD450
- OD 450 nm Absorption [13]: 0.05 OD450
- OD 450 nm Absorption [14]: 0.08 OD450
